Where a chain is given by its changes, count along the chain named. Like-named read-outs stand apart in the source and are kept apart here.

Assay in all cases: SPR
The target in one assay is T1, mFcgRIV (mouse, UniProt A0A0B4J1G0).
T1 chain: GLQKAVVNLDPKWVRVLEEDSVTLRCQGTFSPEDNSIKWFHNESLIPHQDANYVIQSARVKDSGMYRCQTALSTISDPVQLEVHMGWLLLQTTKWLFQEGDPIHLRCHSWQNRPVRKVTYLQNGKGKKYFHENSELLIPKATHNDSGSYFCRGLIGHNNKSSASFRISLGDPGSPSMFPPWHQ

Another assay concerns the target T2, mFcgRI (mouse, UniProt P26151).
T2 chain: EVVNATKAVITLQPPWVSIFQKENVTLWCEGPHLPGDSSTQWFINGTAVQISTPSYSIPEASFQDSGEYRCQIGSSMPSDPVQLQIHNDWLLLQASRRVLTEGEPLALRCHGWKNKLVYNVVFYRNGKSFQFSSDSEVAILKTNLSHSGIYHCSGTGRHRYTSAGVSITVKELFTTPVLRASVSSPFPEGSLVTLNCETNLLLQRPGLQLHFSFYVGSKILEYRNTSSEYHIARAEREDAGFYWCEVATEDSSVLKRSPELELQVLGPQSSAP

Assay [1] addresses T3, FcgRIIIaV (human, UniProt P08637).
Assay [2] concerns the target T4, FcgRIIaR (human, UniProt P12318).
T4 chain: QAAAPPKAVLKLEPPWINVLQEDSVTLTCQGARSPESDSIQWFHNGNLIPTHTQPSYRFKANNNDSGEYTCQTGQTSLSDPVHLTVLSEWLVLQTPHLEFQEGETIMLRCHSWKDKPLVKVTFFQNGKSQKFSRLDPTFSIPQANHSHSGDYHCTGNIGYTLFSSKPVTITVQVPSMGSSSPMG

The target in assay [3] is T5, FcgRIIaH (human, UniProt P12318).
T5 chain: T4 chain with R134H

Assay [4] has as its target T6, FcgRIIb (human, UniProt P31994).
T6 chain: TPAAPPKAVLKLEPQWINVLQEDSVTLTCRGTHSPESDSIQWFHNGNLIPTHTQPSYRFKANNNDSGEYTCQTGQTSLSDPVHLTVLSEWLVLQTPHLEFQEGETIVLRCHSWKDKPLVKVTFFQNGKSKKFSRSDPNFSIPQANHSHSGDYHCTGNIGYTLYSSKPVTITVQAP

For assay [5], the target named is T3, FcgRIIIaV. This is another data set of the same source.
Assay [6] concerns the target T5, FcgRIIaH.
Assay [7] has as its target T6, FcgRIIb.
The target of another assay is T7, FcgRIa (human, UniProt P12314).
T7 chain: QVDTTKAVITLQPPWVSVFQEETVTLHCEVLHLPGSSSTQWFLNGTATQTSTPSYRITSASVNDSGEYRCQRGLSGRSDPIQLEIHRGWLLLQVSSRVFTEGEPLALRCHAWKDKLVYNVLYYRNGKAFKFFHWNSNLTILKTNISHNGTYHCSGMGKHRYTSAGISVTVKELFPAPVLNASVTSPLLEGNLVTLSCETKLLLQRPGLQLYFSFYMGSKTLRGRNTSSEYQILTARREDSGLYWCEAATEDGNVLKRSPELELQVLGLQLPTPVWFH

Assay [8] has as its target T4, FcgRIIaR.

T3 sequence (P08637 17-208 F176V): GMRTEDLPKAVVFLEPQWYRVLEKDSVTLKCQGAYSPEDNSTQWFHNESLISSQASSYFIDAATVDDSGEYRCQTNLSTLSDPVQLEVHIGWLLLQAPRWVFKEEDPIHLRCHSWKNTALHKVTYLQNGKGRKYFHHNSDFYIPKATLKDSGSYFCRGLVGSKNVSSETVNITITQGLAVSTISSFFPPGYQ

B1: VH3/L(WT)-mIgG1 (antibody)
chain 1: QVQLQESGPGLVKPSETLSLTCAVSGHSISHDHAWSWVRQPPGEGLEWIGFISYSGITNYNPSLQGRVTISRDNSKNTLYLQMNSLRAEDTAVYYCARSLARTTAMDYWGEGTLVTVSSAKTTPPSVYPLAPGSAAQTNSMVTLGCLVKGYFPEPVTVTWNSGSLSSGVHTFPAVLQSDLYTLSSSVTVPSSTWPSETVTCNVAHPASSTKVDKKIVPRDCGCKPCICTVPEVSSVFIFPPKPKDVLTITLTPKVTCVVVDISKDDPEVQFSWFVDDVEVHTAQTQPREEQFNSTFRSVSELPIMHQDWLNGKEFKCRVNSAAFPAPIEKTISKTKGRPKAPQVYTIPPPKEQMAKDKVSLTCMITDFFPEDITVEWQWNGQPAENYKNTQPIMDTDGSYFVYSKLNVQKSNWEAGNTFTCSVLHEGLHNHHTEKSLSHSPGK
chain 2: not shown
Consider B1, for which the binding result with mFcgRIV and in the assay with mFcgRI was “no binding” in each case.

B2: IL6R-P577/IL6R-L (antibody)
chain 1: QVQLQESGPGLVKPSETLSLTCAVSGHSISHDHAWSWVRQPPGEGLEWIGFISYSGITNYNPSLQGRVTISRDNSKNTLYLQMNSLRAEDTAVYYCARSLARTTAMDYWGEGTLVTVSSASTKGPSVFPLAPSSKSTSGGTAALGCLVKDYFPEPVTVSWNSGALTSGVHTFPAVLQSSGLYSLSSVVTVPSSSLGTQTYICNVNHKPSNTKVDKKVEPKSCDKTHTCPPCPAPDLLGDDSVFLFPPKPKDTLMISRTPEVTCVVIDVAEEDGEVKFNWYVDGVEVHNAKTKPREEQDNSTYRVVSVLTVLHQDWLNGKEYKCKVSNKALPRPIEKTISKAKGQPREPQVYTLPPSRDELTKNQVSLTCLVKGFYPSDIAVEWESNGQPENNYKTTPMVLDSDGSFFLYSKLTVDKSRWQQGNVFSCSVMHEALHNHYTQKSLSLSP
chain 2: not shown
Usually Kd stands for the concentration at which binding is half-saturated. Turning to B2, the Kd with FcgRIIIaV [1] is 12 µM; in the assay with FcgRIIaR [2], 0.044 µM; with FcgRIIaH [3], 1 µM; with FcgRIIb [4], 0.0012 µM.

B3: IL6R-P730/IL6R-L (antibody)
chain 1: B2 chain 1 with D239Q, A269R, E270P, D298E, R332A, M398P
chain 2: not shown
Regarding B3, the equilibrium dissociation constant (Kd) with FcgRIIIaV [5] came to 73 µM; with FcgRIIaH [6] it was 310 µM; with FcgRIIb [7] it was 10 µM; in the assay with FcgRIa, 1.5 µM; with FcgRIIaR [8], 95 µM.

B4: IL6R-P712/IL6R-L (antibody)
chain 1: B2 chain 1 with D239G, A269R, E270P, D298E, R332A, M398P
chain 2: not shown
For the molecule B4, the equilibrium dissociation constant (Kd) was determined as 82 µM with FcgRIIIaV [5]; 300 µM with FcgRIIaH [6]; 3.4 µM with FcgRIIb [7]; 0.68 µM with FcgRIa; 71 µM in the assay with FcgRIIaR [8].

B5: IL6R-P699/IL6R-L (antibody)
chain 1: B2 chain 1 with D239G, A269R, E270P, D298Y, R332A, M398P
chain 2: not shown
Consider B5, for which the Kd with FcgRIIIaV [5] was 65 µM; with FcgRIIaH [6], 250 µM; with FcgRIIb [7] it was 4.1 µM; in the assay with FcgRIa it was 0.69 µM; with FcgRIIaR [8] it was 57 µM.

Source of the values: US11267868 (dated 2022).
